First the molecules themselves.
T1: AtFUT1 (Arabidopsis thaliana, UniProt Q9SWH5)
T1 sequence (Q9SWH5 84-558 limits assumed): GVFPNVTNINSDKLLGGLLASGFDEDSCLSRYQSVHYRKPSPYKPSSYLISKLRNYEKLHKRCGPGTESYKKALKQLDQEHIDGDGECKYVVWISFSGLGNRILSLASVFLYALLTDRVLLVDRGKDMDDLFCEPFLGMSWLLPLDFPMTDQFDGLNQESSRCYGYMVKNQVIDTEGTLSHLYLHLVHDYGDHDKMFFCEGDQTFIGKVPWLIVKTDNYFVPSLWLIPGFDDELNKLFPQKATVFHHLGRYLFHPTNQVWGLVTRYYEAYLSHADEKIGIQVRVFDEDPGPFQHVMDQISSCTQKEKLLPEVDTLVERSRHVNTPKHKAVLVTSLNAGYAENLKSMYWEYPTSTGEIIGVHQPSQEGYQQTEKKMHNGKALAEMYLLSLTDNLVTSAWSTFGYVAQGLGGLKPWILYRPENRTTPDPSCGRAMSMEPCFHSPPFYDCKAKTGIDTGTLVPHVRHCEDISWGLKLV

B1: AtFUT1 (Arabidopsis thaliana; Q452A) (protein)
chain: T1 sequence (Q9SWH5 84-558 limits assumed) with Q369A
B2: AtFUT1 (Arabidopsis thaliana; D300A) (protein)
chain: T1 sequence (Q9SWH5 84-558 limits assumed) with D217A
B3: AtFUT1 (Arabidopsis thaliana) (protein)
chain: T1 sequence (Q9SWH5 84-558 limits assumed)
B4: AtFUT1 (Arabidopsis thaliana; H523A) (protein)
chain: T1 sequence (Q9SWH5 84-558 limits assumed) with H440A
B5: AtFUT1 (Arabidopsis thaliana; Y486F) (protein)
chain: T1 sequence (Q9SWH5 84-558 limits assumed) with Y403F
B6: AtFUT1 (Arabidopsis thaliana; D550A) (protein)
chain: T1 sequence (Q9SWH5 84-558 limits assumed) with D467A

Positions count from the first letter of the chain named. In names and notes the source's numbering stands.

The first data set concerns the target T1, AtFUT1. Put plainly: real-time 1H NMR of fucosylation. The data set is classed as biochemical. The conditions noted are these: 0.4 mM XLLG, 0.4 mM GDP-Fuc, 4.7 μM enzyme, pH 6.8 in D2O, 25°C.
Consider `OC[C@H]1O[C@@H](O[C@H]2[C@@H](OC[C@H]3O[C@@H](O[C@H]4[C@H](O)[C@@H](O)[C@H](O[C@H]5[C@H](O)[C@@H](O)C(O)O[C@@H]5CO)O[C@@H]4CO[C@H]4OC[C@@H](O)[C@H](O)[C@H]4O[C@@H]4O[C@H](CO)[C@H](O)[C@H](O)[C@H]4O)[C@H](O)[C@@H](O)[C@@H]3O[C@@H]3O[C@H](CO[C@H]4OC[C@@H](O)[C@H](O)[C@H]4O)[C@@H](O)[C@H](O)[C@H]3O)OC[C@@H](O)[C@@H]2O)[C@H](O)[C@@H](O)[C@H]1O` (stereo partly shown) [XLLG], for which the “real-time 1H NMR of fucosylation” value is given as “The xyloglucan oligosaccharide XLLG (Figure 1a), composed of nine glycosyl residues”.

Substrate in the next data set: C[C@@H]1O[C@H](OP(=O)(O)OP(=O)(O)OC[C@H]2O[C@@H](n3cnc4c(=O)[nH]c(N)nc43)[C@H](O)[C@@H]2O)[C@@H](O)[C@H](O)[C@@H]1O
Put plainly: GDP-Glo luminescent GDP release, Michaelis-Menten fit. The format is biochemical, Arabidopsis thaliana. The conditions noted are these: donor varied, 750 μM XXLG, 75 mM HEPES pH 6.8, 28°C.
What is called kcat is the number of substrate molecules converted per active site and unit of time at saturation. B1: the Km was 61.77 (±10.5) μM and the kcat is 0.00533 ± 0.000283 s⁻¹.

Regarding B2, the Km is listed as 40.1 (±7.5) μM and the kcat was 0.00532 ± 0.000267 s⁻¹. The corresponding values for B3 are 25.32 (±4.2) μM and 0.0633 ± 0.000833 s⁻¹. As to B4, the Km is 84.28 (±18.3) μM and the kcat is 0.00123 ± 8.33e-05 s⁻¹.

As to B5, the Km is 60.44 (±12.3) μM and the kcat is 0.0016 ± 0.0001 s⁻¹. The corresponding values for B6 are 55.33 (±6.7) μM and 0.00343 ± 0.000167 s⁻¹.

Values taken from article PMC5735850 (The Plant journal : for cell and molecular biology, 2017).
